Experimental data reported in doi:10.1101/2022.12.04.519012 (bioRxiv, 2022).

Target: DDB1 with N terminal Twin-Strep-FLAG (TSF) tag (human, UniProt Q16531 1-1140)
Assay: cryo-EM structure

DDB1 with N terminal Twin-Strep-FLAG (TSF) tag, sequence (Q16531 whole entry): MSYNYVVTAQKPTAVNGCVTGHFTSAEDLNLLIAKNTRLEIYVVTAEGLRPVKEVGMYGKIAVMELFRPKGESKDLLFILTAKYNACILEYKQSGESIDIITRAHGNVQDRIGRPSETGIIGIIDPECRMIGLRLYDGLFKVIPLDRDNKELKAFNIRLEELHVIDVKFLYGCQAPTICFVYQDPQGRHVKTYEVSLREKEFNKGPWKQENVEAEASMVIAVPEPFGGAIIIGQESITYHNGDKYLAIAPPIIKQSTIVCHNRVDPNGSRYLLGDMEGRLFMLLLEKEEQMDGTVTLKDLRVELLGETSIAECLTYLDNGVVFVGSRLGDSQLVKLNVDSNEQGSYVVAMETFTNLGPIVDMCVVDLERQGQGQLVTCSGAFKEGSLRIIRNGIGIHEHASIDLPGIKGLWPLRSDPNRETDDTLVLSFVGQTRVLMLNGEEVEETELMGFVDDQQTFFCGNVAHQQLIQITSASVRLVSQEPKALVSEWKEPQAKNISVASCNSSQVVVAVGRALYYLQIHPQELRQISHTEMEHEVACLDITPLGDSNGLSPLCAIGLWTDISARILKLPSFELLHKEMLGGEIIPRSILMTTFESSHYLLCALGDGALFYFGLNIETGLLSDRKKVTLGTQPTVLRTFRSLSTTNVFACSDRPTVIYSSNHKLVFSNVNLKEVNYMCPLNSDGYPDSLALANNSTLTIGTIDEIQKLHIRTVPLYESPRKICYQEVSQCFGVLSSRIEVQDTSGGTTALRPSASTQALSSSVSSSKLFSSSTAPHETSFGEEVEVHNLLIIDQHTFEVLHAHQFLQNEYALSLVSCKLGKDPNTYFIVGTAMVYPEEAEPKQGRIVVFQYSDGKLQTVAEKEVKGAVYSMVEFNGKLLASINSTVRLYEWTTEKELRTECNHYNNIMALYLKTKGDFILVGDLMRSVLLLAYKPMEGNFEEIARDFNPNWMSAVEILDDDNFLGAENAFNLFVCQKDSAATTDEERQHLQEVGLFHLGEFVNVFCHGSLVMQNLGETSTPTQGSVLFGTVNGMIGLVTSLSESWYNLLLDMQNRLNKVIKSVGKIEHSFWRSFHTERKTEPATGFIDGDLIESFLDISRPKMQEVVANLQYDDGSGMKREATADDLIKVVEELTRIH

B1: AMBRA1^WD40 (residues 1-204 directly fused to residues 853-1044) (domain or fragment)
chain: MKVVPEKNAVRILWGRERGARAMGAQRLLQELVEDKTRWMKWEGKRVELPDSPRSTFLLAFSPDRTLLASTHVNHNIYITEVKTGKCVHSLIGHRRTPWCVTFHPTISGLIASGCLDGEVRIWDLHGGSESWFTDSNNAIASLAFHPTAQLLLIATANEIHFWDWSRREPFAVVKTASEMERVRLVRFDPLGHYLLTAIVNPSNSNIANTTYRLQWWDFTKFDLPEISNASVNVLVQNCKIYNDASCDISADGQLLAAFIPSSQRGFPDEGILAVYSLAPHNLGEMLYTKRFGPNAISVSLSPMGRYVMVGLASRRILLHPSTEHMVAQVFRLQQAHGGETSMRRVFNVLYPMPADQRRHVSINSARWLPEPGLGLAYGTNKGDLVICRPEALNSG
- binding result: binds
